B1: ZBTB22 (parent)
chain: AVLAASSPYFHDQVLLKGMTSISL
B2: MED27 (parent)
chain: YNENVYTEDGKLDIWSKSNYQVFQ
B3: MLL5 (parent)
chain: DCMGIDRQHIPDTYLCERCQPRNL

Variants of: B1
Experiment: protein stability index of a GFP-peptide fusion (GPS, HEK-293T) (PSI 1-6); higher = more stable
Settings: c terminus: a fixed tail appended
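Note: lentivirally expressed fusions sorted by FACS into six bins by GFP to DsRed ratio, PSI derived from sequencing read proportions per bin multiplied by bin number.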

Protein stability index, by site and new letter:
L3: P 3.11 | M 3.26 | E 2.04 | S 1.45 | N 2.38 | A 2.48 | Q 1.93 | C 2.92 | T 2.38 | H 2.22 | R 1.45 | K 1.64 | I 3.32
A5: E 1.55 | L 2.21 | Y 2.44 | F 2.98 | W 1.88 | S 2.6 | Q 3.23 | K 3.55 | H 2.04 | T 3.75 | N 2.66
S7: H 2.8 | W 2 | T 3.75 | L 2.91 | D 3.38 | I 4.5 | E 2.33 | Y 1.47 | V 2.11
L16: Y 3.11 | W 2.44 | M 3.83 | S 2.26 | G 2.28 | C 3.99 | D 1.93 | N 2.37 | P 2.27 | Q 2.32 | K 3 | F 2.47
M19: W 1.8 | Q 1.46 | L 2.23 | K 1.37 | T 2.57 | E 1.69 | A 2.09 | P 3.42 | S 2.68 | C 3.68 | G 1.04 | R 2.92
P8: A 2.55 | L 3.83 | I 2.73 | D 2.5 | H 2.88 | F 2.55 | G 3.22 | R 4.82
S6: G 2.75 | N 3.54 | P 2.23 | T 2.4 | Q 3.02 | D 2.61 | K 2.05 | E 1.41 | W 3.82 | R 1.67 | I 1.97
S21: G 2.85 | D 2.17 | K 2.35 | L 3.04 | F 2.52 | C 3.52 | Y 3.85 | A 2.04 | Q 2.67 | E 1.95 | N 2.11
I22: Q 1.09 | K 2.13 | N 1.44 | A 3.31 | D 1.66 | E 4.43 | G 2.4 | P 1.72 | H 2.43 | C 1.83 | S 1.29 | Y 3.76 | T 2.75
L15: K 2.3 | A 1.66 | P 1.3 | Q 1.76 | N 2.76 | D 2.77 | G 3.34 | C 1.87 | H 1.4 | E 1.38 | M 1.94 | I 3.58 | F 3.52
Q13: M 2.94 | G 2.15 | A 3.38 | D 3.61 | F 3 | L 1.43 | V 2.02 | K 1.92 | P 1.64 | H 2.48 | T 3.86 | I 4.9
G18: S 3.59 | E 1.46 | F 3.77 | A 3.06 | I 2.8 | H 1.84 | D 3.05 | K 2.14 | W 2.61 | Y 3.35 | N 2.37 | V 2.66
T20: E 2.54 | L 3.1 | Q 2.14 | I 2.3 | M 3.42 | N 2.51 | K 2.32 | V 4.26 | H 1.6
K17: A 1.94 | Y 2.88 | I 3.47 | P 2.05 | N 1.43
A4: H 4.29 | E 2.48 | S 1.88 | P 1.05 | Y 2 | D 1.15 | K 2.92 | G 1.92 | M 2.04 | L 2.9 | I 2.48 | F 2.24
V14: Y 2.25 | K 1.04 | N 2.07 | A 2.47 | P 1.63 | Q 1.73 | E 2.47 | M 2.72 | F 1.8 | T 2.96 | H 2.37 | C 3.27 | S 3.06 | R 3.36 | D 1.71
L24: A 1.58 | Q 1.7 | T 1.27 | P 1.62 | F 3.47 | K 1.95 | H 1.95 | Y 3.14 | R 1.84 | D 1.76 | N 1.83 | I 3.01 | S 1.15 | V 1.53 | E 1.52
H11: L 1.89 | P 2.11 | T 3.44 | D 3.15 | M 4.12 | S 2.71 | I 1.58
S23: I 2.51 | G 3.35 | T 1.22 | K 2.8 | D 1.3 | W 2.97 | M 1.86 | L 2.64 | P 3.55 | F 4.12 | C 1.95 | E 2.57 | H 2.46
Y9: I 4.18 | P 1.84 | V 2.54 | D 2.17 | A 1.37 | F 3.55 | N 2.96 | H 1.33 | E 2.05
A1: I 2.99 | C 3.85 | T 4.21 | N 2.3 | E 4.15 | Q 2.39 | H 4.3 | Y 2.9 | K 3.83 | M 2.57
D12: T 2.95 | A 2.68 | Y 3.7 | L 2.57 | P 3.38 | R 3.23 | N 1.98 | Q 3.51 | K 1.39 | W 2.12
F10: R 1.41 | G 2.6 | E 1.76 | D 2.04 | K 1.73 | Q 1.65 | H 2.49 | C 2.28 | V 2.44 | P 1 | M 2.72 | Y 2.19 | S 1.87 | N 1.92 | W 2.24
V2: W 1.79 | I 2.75 | N 1.63 | R 2.15 | K 1.97 | C 1.04 | E 1.41 | T 1.45 | S 2.33 | H 2.52 | Q 1.62 | D 2.17

Variants of: B2
Experiment: as above
Settings: c terminus: a fixed tail appended

Protein stability index, by site and new letter:
Y1: L 3.2 | K 3.28 | I 2.5 | R 3.11 | A 2.86 | V 3.67 | H 3.23 | Q 3.74 | D 3.38 | T 3.4 | C 2.9 | G 3.7 | P 3.52 | M 3.52 | W 2.93 | S 3.23 | E 4.04 | F 2.27 | N 3.35
N2: G 1.75 | I 1.68 | H 1.75 | D 3.6 | K 2.91 | F 2.26 | C 2.47 | E 3.95 | A 2.53

Variants of: B3
Experiment: as above
Settings: c terminus: a fixed tail appended

Protein stability index, by site and new letter:
E17: N 3.35
D12: Y 2.1
N23: R 1.53 | L 2.5
L24: H 2.91
D1: N 2.21 | V 2.86 | W 1.4
C19: R 4.24 | L 3.43 | I 3.02
D6: I 1.56
C2: L 2.73
L15: V 3.28
C16: S 3.52 | M 3.7 | G 4.23
R18: Q 3.01 | H 3.18
R22: D 3.42
T13: D 3.54 | F 2.55
M3: H 2.81 | P 3.32 | F 2.57
G4: K 3.19 | T 3.23
Y14: A 3.85 | F 2.89
Q8: M 2.58 | A 2.54 | W 1.76 | P 3.41 | F 1.98
Q20: N 3.33
R7: Q 3.06 | M 2.55

Reference: the supplement of paper PMC10567573
